Assay results published in US20160002672A1, “PRODUCTION OF ISOPRENE, ISOPRENOID, AND ISOPRENOID PRECURSORS USING AN ALTERNATIVE LOWER MEVALONATE PATHWAY” (DANISCO US INC., priority 2012, published 2016).
Several values for one entry are separate records, joined by “and”; a condition that tells them apart may be missing. Identical values can stand only once.

B1: Herpetosiphon PMevDC: Herpetosiphon aurantiacus phosphomevalonate decarboxylase, SEQ ID NO: 16, Genbank YP_001544383 (protein, listed as Herpetosiphon aurantiacus)
chain: MKQLSHAATAVACANIAFIKYWGQHDSQLTLPTNGSISMNLDGCLTETTVQCLPEAVDDSVWLALSGGEEVQAKGRQFERVIQQIERLRQLAGVTERVEVRSRNNFPSDAGIASSAAAFAALTRAAASAFRLELDEAELSRLTRLSGSGSACRSIPAGFVEWYNDGTHAGSYAAQIAPPEHWNLVDIVAVISTEAKHVASTSGHSVATTSPYFSVRLEGIEQRLADVRQGILERDIERLGRASEADAMSMHVIAMTAQPSTMYWLPGTLAVMQAVQRWRAQDNLQSYWTIDAGPNVHVICEAKDAPEVEARLCELDAVQWTIVNGAGPEARLVG
B2: S. cerevisiae MVD: Mevalonate decarboxylase (MVD) from Saccharomyces cerevisiae used as a reference (protein, UniProt P32377 1-396, looked up)
Diphosphomevalonate …: MTVYTASVTAPVNIATLKYWGKRDTKLNLPTNSSISVTLSQDDLRTLTSAATAPEFERDTLWLNGEPHSIDNERTQNCLRDLRQLRKEMESKDASLPTLSQWKLHIVSENNFPTAAGLASSAAGFAALVSAIAKLYQLPQSTSEISRIARKGSGSACRSLFGGYVAWEMGKAEDGHDSMAVQIADSSDWPQMKACVLVVSDIKKDVSSTQGMQLTVATSELFKERIEHVVPKRFEVMRKAIVEKDFATFAKETMMDSNSFHATCLDSFPPIFYMNDTSKRIISWCHTINQFYGETIVAYTFDAGPNAVLYYLAENESKLFAFIYKLFGSVPGWDKKFTTEQLEAFNHQFESSNFTARELDLELQKDVARVILTQVGSGPQETNESLIDAKTGLPKE
B3: H. aurantiacus IPK: Herpetosiphon aurantiacus isopentenyl phosphate kinase, SEQ ID NO: 19, Genbank YP_001545053 (protein, listed as Herpetosiphon aurantiacus)
chain: MNKPIFIKLGGSMLTDKTTAERLVDQTLKQVVTDLSAWRQAHPNQPILLGHGGGSFGHYWAERYQTAQGIINEQSWWGVARVADAMARLNRAVVGACLDADLPAIGIQPMASSLANAGEIQQIGSQPLATLLAAGTIPVIYGDVLLDVAQGCTIASTERIFSALVGPLQPTQIILLGEQAVYDADPRQHADAQPIPLINRTNYATIIARLGGSHGVDVTGGMRNKVEAMWQLVQQAPQLEIWICGPQQLQSALSGQLNGPGTIIKLD
B4: S378Pa3-2 PMevDC: phosphomevalonate decarboxylase isolated from a soil metagenomic library, SEQ ID NO: 18 (protein)
chain: MDYYYRVINNNEIPMKSPEFLEVSALAHPNIAFIKYWGNRDNDLRLPCNGSLSMNLSGLETKTSVQFDPSLSADQFKLSGKPIEWDALRRVSDFLEIVRDLAGISFFAKVESENSFPSGAGIASSASAFAALALAASKAAGLSLDEEALSRLARRGSGSACRSIPDGFVEWQAGSTDQDSFAWSIAPADHWDLVDLICVLNSEHKTVGSTGGHALASTSDLHLLRQERVEERIEICRKAILDRDFEHFASVVEEDSNLMHAVMRTSKPPLNYWLPETEVILWKVIHWRKKGIPVCSTVDAGPNVHVLTLSSEAEKVEALLKECPGVQSIFKARAGQGAQLI
modifications: Isolated from a metagenomic library constructed from soil samples

Assays:
[1] = SDS-PAGE analysis of His-tagged and TEV protease cleaved PMevDCs and IPKs (solubility); assay type: physicochemical; conditions: FIG. 9
Experimental: Strains MCM2257, MCM2258, MCM2259, MCM2260, MCM2261, and MCM2262 were inoculated in 1 liter of LB medium containing the appropriate antibiotic and incubated at 34° C. for 7 hours from overnight cultures grown at 34° C. in LB broth containing the appropriate antibiotic (Table 7). Cultures at an OD 0.5-0.7 were induced with 200 μM IPTG. After induction, cells were harvested by centrifugation at 10000×g for 10 minutes. After removal of the supernatant, the cell pellets were resuspended in 40 mL lysis buffer containing 50 mM KPO4, pH 8.0, 0.3 M NaCl, 0.02 mM imidizole, 1 mg/mL lysozyme, and 1 mg/mL DNAase. The cells were lysed using a french pressure cell at 14,000 psi and the cell lysate was centrifuged at 50,000×g for 1 hour. The supernatant was collected, passed over a Ni-affinity resin before the resin was washed with 10 column volumes of lysis buffer containing 50 mM imidazole. The protein was eluted with 5 column volumes of lysis buffer containing 250 mM imidizole. Collected fractions were concentrated and passed over PD-10 columns for buffer exchange and the final collected protein samples were >95% pure according to SDS-PAGE analysis. The purified samples were incubated with TEV protease overnight at 4° C. to remove histidine tags from the purified proteins. The digested samples were subsequently passed over Ni-affinity resin and the flow-through was collected and analyzed by SDS-PAGE.
H. aurantiacus PMevDC (lanes 2 and 3), H. aurantiacus IPK (lanes 4 and 5), and S378Pa3-2 PMevDC (lanes 6 and 7) were all soluble whether they were expressed with an attached His-tag or without a His-Tag (FIG. 9).

[2] = Kinetic characterization of decarboxylases (coupled spectrophotometric assay), phosphomevalonate as substrate; assay type: biochemical; conditions: 34° C., 5 mM ATP, 10-250 μM (R)-phosphomevalonate, * using 1 mM substrate
Experimental: (§1) PMevDCs were incubated in the presence of mevalonate, phosphomevalonate, diphosphomevalonate, ATP, MgCl2 and the products of the reactions were confirmed by LC-MS. Mevalonate decarboxylase (MVD) from Saccharomyces cerevisiae was used as a reference. The catalytic activities of the decarboxylases were measured using a modified spectrophotometric assay that coupled ADP formation to pyruvate synthesis and reduction to lactate. The initial rate of disappearance of NADH was monitored at 340 nm on a SpectraMax M5 (Molecular Devices) to measure the reaction rate catalyzed by the PMevDCs. Samples for reaction rate studies contained 0.8 mM phosphoenolpyruvate, 0.05 mM DTT, 0.32 mM NADH, 10 mM MgCl2, 4 U lactate dehydrogenase, 4 U pyruvate kinase, 5 mM ATP and 10-250 μM (R)-phosphomevalonate or 10-250 μM (R)-diphosphomevalonate. All reactions were performed at 34° C. Reaction rate data was processed using Microsoft Excel and kinetic parameters were determined using Kaleidagraph.

[3] = Kinetic characterization of decarboxylases (coupled spectrophotometric assay), diphosphomevalonate as substrate; assay type: biochemical; conditions: 34° C., 5 mM ATP, 10-250 μM (R)-diphosphomevalonate; for kcat ± SD, Diphosphomevalonate: * using 1 mM substrate; for Km: read-out: KM ± SD, Diphosphomevalonate
Experimental: as §1

[4] = In vitro metabolite measurement, substrate conversion by crude E. coli lysate, substrate MVA; assay type: biochemical; conditions: crude extract from E. coli DH10b overexpressing S378Pa3-2
Experimental: (§2) In vitro assays were done with crude extracts from E. coli DH10b overexpressing pMCM2212. […] Negative control assays were done with extracts of E. coli harboring pTrcHis2b without insert. Substrates for in vitro conversions were mevalonate (MVA), mevalonate phosphate (MVP) also referred to as mevalonate 5-phosphate, mevalonate diphosphate (MVPP) also referred to as mevalonate 5-pyrophosphate, and isopentenyl phosphate (IP). Substrate conversion and product formation was analyzed by LC/MS.
(§3) Mass spectrometric analysis of metabolites was performed using a TSQ Quantim triple quadrupole instrument (Thermo Scientific). System control, data acquisition, and data analysis were done with XCalibur and LCQuan software (Thermo Scientific). About 10 μL samples were applied to a C18 Synergi MAX-RP HPLC column (150×2 mm, 4 uM, 80 A, Phenomenex) equipped with the manufacturer-recommended guard cartridge. The column was eluted with a gradient of 15 mM acetic acid+10 mM tributylamine in MilliQ-grade water (solvent A) and LCMS-grade methanol from Honeywell, Burdick & Jackson (solvent B). […] Concentrations of metabolites in cell extracts were determined based on calibration curves obtained by injection of commercial standards dissolved in 20% methanol/50 mM NH4Ac buffer (pH 7.0) to 0.5 ppm to 50 ppm final concentration. […]

[5] = In vitro metabolite measurement, substrate conversion by crude E. coli lysate, substrate MVP; assay type: biochemical; conditions: crude extract from E. coli DH10b overexpressing S378Pa3-2
Experimental: as §2, §3

screening host V. 05 = test: Activity-based screening for PMevDC in MVA-auxotrophic screening host; assay type: cell-based, E. coli; conditions: for growth / complementation of the lower MVA pathway in screening host in presence of MVA: 500 μM MVA
[6] = In vitro metabolite measurement, substrate conversion by crude E. coli lysate, substrate IP; assay type: biochemical; conditions: crude extract from E. coli DH10b overexpressing S378Pa3-2
Experimental: as §2, §3

[7] = In vitro metabolite measurement, substrate conversion by crude E. coli lysate, substrate MVPP; assay type: biochemical; conditions: crude extract from E. coli DH10b overexpressing S378Pa3-2
Experimental: as §2, §3

[8] = listed as Herpetosiphon aurantiacus ATCC 23779 PMevDC

| Molecule | solubility of expressed enzyme with or without His-tag [1] | kcat ± SD, Phosphomevalonate [2] | kcat ± SD, Phosphomevalonate [2, 8] | kcat ± SD, Diphosphomevalonate [3] | kcat ± SD, Diphosphomevalonate [3, 8] | Km [3] | use of MVA as substrate [4] | activity of crude extract on MVP [5] | growth / complementation of the lower MVA pathway in screening host in presence of MVA (screening host V. 05) | growth / complementation of the lower MVA pathway in screening host in presence of MVA (screening host V. 05; listed as cds#2) | growth in presence of Fosmidomycin (screening host V. 05; Fosmidomycin 32 μg/ml, 500 μM MVA supplied) | use of IP as substrate [6] | activity of crude extract on MVPP [7] |
| --- | --- | --- | --- | --- | --- | --- | --- | --- | --- | --- | --- | --- | --- |
| B1 | soluble | 3.3 ± 0.2 s⁻¹ | 3.3 s⁻¹ | <0.02* s^−1 | less than 0.02 s^−1 |  |  |  |  |  |  |  |  |
| B2 |  |  |  | 11.6 s⁻¹ and 11.6 ± 0.6 s⁻¹ |  | 44 µM |  |  |  |  |  |  |  |
| B3 | soluble |  |  |  |  |  |  |  |  |  |  |  |  |
| B4 | soluble | 2.9 s⁻¹ and 2.9 ± 0.5 s⁻¹ |  | 1.09 s⁻¹ and 1.09 ± 0.09 s⁻¹ |  | 22 µM | not used as substrates | activity on MVP | sustained growth | able to complement the lower MVA pathway | grew unrestricted | not used as substrates | some activity on MVPP |
